No end group written: not given here.
Target: T1, human factor Xa (Enzyme Research Laboratories, Inc.) (human), P00742
T1 chain 1: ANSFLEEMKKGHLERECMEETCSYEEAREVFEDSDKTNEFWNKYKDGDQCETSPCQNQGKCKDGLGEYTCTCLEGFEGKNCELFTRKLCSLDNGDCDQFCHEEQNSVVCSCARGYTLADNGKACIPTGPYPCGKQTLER
T1 chain 2: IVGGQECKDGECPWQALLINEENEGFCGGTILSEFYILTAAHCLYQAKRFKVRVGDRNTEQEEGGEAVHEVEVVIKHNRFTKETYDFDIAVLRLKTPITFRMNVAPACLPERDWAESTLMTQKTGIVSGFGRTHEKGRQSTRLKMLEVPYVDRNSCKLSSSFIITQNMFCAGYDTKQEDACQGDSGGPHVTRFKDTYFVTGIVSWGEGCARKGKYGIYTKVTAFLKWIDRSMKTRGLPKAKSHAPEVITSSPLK
Assay: chromogenic FXa inhibition

GYIRI-NH2 [G-Y-I-R-I-NH2]
Ki: < 100 µM

GYIRG-NH2 [G-Y-I-R-G-NH2]
Ki: < 100 µM

GYIRG (modifications not checked) [G-Y-I-R-G]
Ki: < 100 µM

GYIRH-NH2 [G-Y-I-R-H-NH2]
Ki: < 100 µM

WIREK-NH2 [W-I-R-E-K-NH2]
Ki: < 100 µM

GYIRL-NH2 [G-Y-I-R-L-NH2]
Ki: < 100 µM

GYIRK-NH2 [G-Y-I-R-K-NH2]
Ki: < 100 µM

EYIRK-NH2 [E-Y-I-R-K-NH2]
Ki: < 100 µM

Ac-GYIRG-NH2 [Ac-G-Y-I-R-G-NH2]
Ki: < 100 µM

Ac-GYIRL-NH2 [Ac-G-Y-I-R-L-NH2]
Ki: < 100 µM

GYIRT-NH2 [G-Y-I-R-T-NH2]
Ki: < 100 µM

Reference: US6759384
